Source: the supplement of paper PMC7125110
± gives the standard error. For part of these data: Fewer inactive variants are shown than the library holds.

B1: glmS ribozyme (parent)
chain: AUAAAAGCGCCAGAACUACAGAAAUGUAGUUGACGAGGAGGAGGUUUAUCGAAUUUUCGGCGGAUGCCUCCAAA

Key:
Conditions in all cases: with glucosamine-6-phosphate
glucosamine-6-phosphate [1] = variants of: B1; test: kcat; higher = faster cleavage; RNA array
Method in brief: (§1)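 Tiles of sequenced MiSeq chips were imaged over ~14 h at 37 °C. On them, barcoded ribozyme variants had been transcribed in situ by E. coli RNA polymerase and were tracked via a hybridised Cy3 probe while glucosamine-6-phosphate (40 μM to 10 mM) in HEPES/KCl/Mg(OAc)2 buffer flowed in. Per-tile medians, normalised to baseline and to non-cleaving reference variants, were fit to one- or two-exponential decays for kobs, and weighted Michaelis–Menten fits gave kcat and KM.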

glucosamine-6-phosphate [2] = variants of: B1; test: KM; higher = weaker cofactor use; RNA array
Method in brief: as §1

glucosamine-6-phosphate [3] = variants of: B1; test: self-cleavage kobs at 160 uM GlcN6P; higher = faster cleavage; RNA array
Method in brief: as §1

glucosamine-6-phosphate [4] = variants of: B1; test: self-cleavage kobs at 640 uM GlcN6P; higher = faster cleavage; RNA array
Method in brief: as §1

glucosamine-6-phosphate [5] = variants of: B1; test: self-cleavage kobs at 2500 uM GlcN6P; higher = faster cleavage; RNA array
Method in brief: as §1

glucosamine-6-phosphate [6] = variants of: B1; test: self-cleavage kobs at 10000 uM GlcN6P; higher = faster cleavage; RNA array
Method in brief: as §1

glucosamine-6-phosphate [7] = variants of: B1; test: self-cleavage kobs at 40 uM GlcN6P; higher = faster cleavage; RNA array
Method in brief: as §1

Variant | kcat (glucosamine-6-phosphate [1]) [s⁻¹] | KM (glucosamine-6-phosphate [2]) [µM] | self-cleavage kobs at 160 uM GlcN6P (glucosamine-6-phosphate [3]) [s⁻¹] | self-cleavage kobs at 640 uM GlcN6P (glucosamine-6-phosphate [4]) [s⁻¹] | self-cleavage kobs at 2500 uM GlcN6P (glucosamine-6-phosphate [5]) [s⁻¹] | self-cleavage kobs at 10000 uM GlcN6P (glucosamine-6-phosphate [6]) [s⁻¹] | self-cleavage kobs at 40 uM GlcN6P (glucosamine-6-phosphate [7]) [s⁻¹]
U47G G66U | 0.000146 ± 7.9e-06 | 756 ± 130 | 3.12e-05 ± 1.5e-05 | 6.79e-05 ± 8.7e-06 | 0.000106 ± 1.1e-05 | 0.000142 ± 1.4e-05 | –
A48U C70G | 3.29e-05 ± 1e-05 | – | – | 3.69e-05 ± 1.1e-05 | 4.89e-05 ± 9.2e-06 | – | –
A48U C70A | 1.64e-05 ± 7.1e-06 | – | – | – | 3.28e-05 ± 1.6e-05 | – | –
A48U C71G | 4.92e-05 ± 1e-05 | – | – | 4.04e-05 ± 7.5e-06 | 6.5e-05 ± 9.8e-06 | 3.69e-05 ± 8e-06 | –
A48U C71A | 0.000129 ± 1.2e-05 | 1380 ± 540 | – | – | 0.000102 ± 2.6e-05 | 0.000111 ± 1.4e-05 | –
A48C C70U | 0.000564 ± 5.5e-05 | 3470 ± 540 | – | 8.59e-05 ± 1.5e-05 | 0.000254 ± 3.9e-05 | 0.000401 ± 7.4e-05 | –
A48C C68G | < 1e-05 | – | – | – | – | < 1e-05 | < 1e-05
U49G A53G A64G C67A | 0.000753 ± 0.0002 | 2220 ± 890 | 5.27e-05 ± 1.4e-05 | 0.00016 ± 2.3e-05 | 0.000369 ± 7.9e-05 | 0.000669 ± 0.00013 | 3.28e-05 ± 1.1e-05
A48G C58U | 1.71e-05 ± 2.1e-06 | – | – | – | – | – | –
A48U A53G | 0.000396 ± 3.6e-05 | 1560 ± 290 | 2.96e-05 ± 1.2e-05 | 0.000127 ± 1.9e-05 | 0.000229 ± 3.5e-05 | 0.000349 ± 4.7e-05 | –
U47C C67U | 0.000295 ± 6.9e-05 | – | 6.7e-05 ± 2.4e-05 | 0.000131 ± 3.2e-05 | 0.000177 ± 3.5e-05 | 0.000358 ± 6e-05 | –
A48C U56C | 5.47e-05 ± 1.8e-06 | 357 ± 160 | – | < 1e-05 | 4.83e-05 ± 1.6e-05 | 5.27e-05 ± 1.2e-05 | –
A48U A64G | 0.00341 ± 0.00044 | 5500 ± 1100 | 8.32e-05 ± 1.7e-05 | 0.000385 ± 7.8e-05 | 0.0012 ± 0.00016 | 0.00214 ± 0.00022 | 2.41e-05 ± 7.5e-06
U49C C70G | 1.42e-05 ± 2.5e-06 | – | – | – | – | < 1e-05 | –
A48U U65G | 0.000116 ± 1e-05 | 1390 ± 430 | – | 3.11e-05 ± 9.7e-06 | 8.19e-05 ± 1e-05 | 9.9e-05 ± 9.7e-06 | < 1e-05
U47G C50U A64C | 1.3e-05 ± 3.4e-06 | – | – | – | – | – | –
A48G U56C | 5.09e-05 ± 1.7e-06 | 3700 ± 360 | – | – | – | 3.71e-05 ± 1.1e-05 | –
A48G U56G | 7.92e-05 ± 1.9e-06 | 696 ± 110 | – | – | 6.4e-05 ± 1.3e-05 | 7.35e-05 ± 8.9e-06 | < 1e-05
U49A C68G | 2.5e-05 ± 5.3e-06 | – | – | – | – | – | –

Variant | kcat (glucosamine-6-phosphate [1]) [s⁻¹] | KM (glucosamine-6-phosphate [2]) [µM] | self-cleavage kobs at 160 uM GlcN6P (glucosamine-6-phosphate [3]) [s⁻¹] | self-cleavage kobs at 640 uM GlcN6P (glucosamine-6-phosphate [4]) [s⁻¹] | self-cleavage kobs at 2500 uM GlcN6P (glucosamine-6-phosphate [5]) [s⁻¹] | self-cleavage kobs at 10000 uM GlcN6P (glucosamine-6-phosphate [6]) [s⁻¹] | self-cleavage kobs at 40 uM GlcN6P (glucosamine-6-phosphate [7]) [s⁻¹]
U49A C68A | 1.25e-05 ± 6e-06 | – | – | – | – | < 1e-05 | < 1e-05
U49A A53G | 2.25e-05 ± 2.1e-06 | 3410 ± 1000 | – | – | – | – | –
A48U U54A | 0.000682 ± 2.5e-05 | 3130 ± 210 | 3.6e-05 ± 1.3e-05 | 0.000113 ± 2.8e-05 | 0.00029 ± 7.8e-05 | 0.000524 ± 7.9e-05 | –
A48G C61U | 3e-05 ± 9.3e-06 | – | – | – | – | – | < 1e-05
A48C C71U | 0.000393 ± 1.6e-05 | 5220 ± 390 | – | 4.42e-05 ± 7.8e-06 | 0.000123 ± 1.7e-05 | 0.00026 ± 2.4e-05 | –
A48G C67G | 5.64e-05 ± 1.8e-05 | – | < 1e-05 | 3.36e-05 ± 1.6e-05 | 7.99e-05 ± 1.9e-05 | 4.41e-05 ± 1.4e-05 | –
A48G C68U | 0.000161 ± 4.8e-05 | – | < 1e-05 | – | – | 4.18e-05 ± 8.3e-06 | –
U47G C68G | 8.45e-05 ± 1.2e-05 | – | 0.000166 ± 2.8e-05 | 8.26e-05 ± 1e-05 | 0.000104 ± 1.2e-05 | 7.41e-05 ± 6.8e-06 | 5.34e-05 ± 1e-05
U49C C50G | < 1e-05 | – | < 1e-05 | – | – | < 1e-05 | < 1e-05
U49C C50U | < 1e-05 | – | – | – | – | < 1e-05 | < 1e-05
U47G U65G | 0.00249 ± 0.00033 | 2760 ± 530 | 0.000153 ± 2e-05 | 0.000451 ± 7e-05 | 0.00107 ± 0.00015 | 0.0021 ± 0.00028 | 3.08e-05 ± 1.1e-05
U47G U57G | 6.2e-05 ± 9.2e-06 | – | – | – | 6.68e-05 ± 2.2e-05 | 5.61e-05 ± 1.2e-05 | –
U47C U49C | < 1e-05 | – | – | < 1e-05 | – | – | –
U49A C67U | < 1e-05 | – | – | – | – | < 1e-05 | < 1e-05
A48C U54C | 0.00042 ± 0.00013 | – | – | 9.71e-05 ± 2.4e-05 | 0.000224 ± 6e-05 | 0.000316 ± 9.5e-05 | –
A48C U54A | 0.000452 ± 4.8e-05 | 1720 ± 350 | 3.98e-05 ± 2e-05 | 0.000118 ± 2.2e-05 | 0.000342 ± 8.9e-05 | 0.000371 ± 6.6e-05 | –
U47C U54G | 0.00375 ± 0.00045 | 1210 ± 200 | – | 0.0013 ± 0.00028 | 0.00193 ± 0.00076 | 0.00359 ± 0.00065 | 0.000121 ± 1.7e-05
U47G U49A | 1.31e-05 ± 3.3e-06 | – | – | – | – | – | –
